Assay results reported in patent US20190262368A1.

Legend:
[1] = target: human LOX1 on cells (human LOX1 transfected CHO TREX cells; endogenous on HAECs) (human) (UniProt P78380); experiment: cell-based or functional assay
[2] = target: human LOX1 on cells (human LOX1 transfected CHO TREX cells; endogenous on HAECs) (human) (UniProt P78380); experiment: row label missing; by the order of Table 5 taken as oxLDL/hLOX1 CHO competition (FMAT, DyLight 649 oxLDL as competitor), Mean
[3] = target: human LOX1 on cells (human LOX1 transfected CHO TREX cells; endogenous on HAECs) (human) (UniProt P78380); experiment: row label missing; by the order of Table 5 taken as AGE BSA/hLOX1 CHO competition (FMAT, DyLight 649 AGE-BSA as competitor), Mean
[4] = target: human LOX1 SNP K167N variant on transfected CHO TREX cells (human) (UniProt P78380); experiment: row label missing; by the order of Table 5 taken as oxLDL/K167N hLOX1 CHO competition (FMAT, DyLight 649 oxLDL as competitor), Mean
[5] = target: recombinant human LOX1 (R&D Systems) (human) (UniProt P78380); experiment: row label missing; by the order of Table 5 taken as CRP/hLOX1 competition (plate assay, biotin CRP as competitor, immobilised recombinant hLOX1), Mean

IC50 (Mean) of oxLDL internalisation in hLOX1 CHO cells; row label missing, taken by the order of Table 5 [1]: 2.85 nM
IC50 (Mean) of oxLDL-dependent ROS generation in hLOX1 CHO cells; row label missing, taken by the order of Table 5 [1]: 10.1 nM
IC50 [2]: 2.2 nM
IC50 [3]: 1.15 nM
IC50 [4]: 1.31 nM
IC50 [5]: 11.1 nM
Substance: 23C11, commercially available mouse anti-LOX-1 antibody
